Experiment [1] concerns the target T1, rat ASIC1a-eYFP (rASIC1a-eYFP) on transiently transfected CHO-K1 cells (rat, UniProt P55926 1-526).
T1 construct: whole, on cells; not shown: eYFP fusion partner
T1 sequence (looked up): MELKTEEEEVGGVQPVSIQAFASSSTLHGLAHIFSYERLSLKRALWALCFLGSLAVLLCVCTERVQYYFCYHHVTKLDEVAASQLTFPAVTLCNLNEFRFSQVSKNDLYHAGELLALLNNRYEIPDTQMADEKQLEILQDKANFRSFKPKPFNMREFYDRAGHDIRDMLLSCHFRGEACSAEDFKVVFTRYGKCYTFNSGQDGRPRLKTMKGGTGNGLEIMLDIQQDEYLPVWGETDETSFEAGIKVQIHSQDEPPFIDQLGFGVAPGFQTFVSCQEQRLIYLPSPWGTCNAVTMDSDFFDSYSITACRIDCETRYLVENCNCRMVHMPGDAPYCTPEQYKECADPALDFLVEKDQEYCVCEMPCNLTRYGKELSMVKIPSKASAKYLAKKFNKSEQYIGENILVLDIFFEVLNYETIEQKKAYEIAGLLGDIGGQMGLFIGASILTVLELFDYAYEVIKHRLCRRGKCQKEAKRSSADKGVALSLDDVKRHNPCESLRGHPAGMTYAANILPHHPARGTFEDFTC
Kind of experiment: FACS on transiently transfected CHO-K1 cells. The protocol:
To investigate the species selectivity of ASC06-IgG1 affinity-matured antibodies, plasmids encoding fusion proteins of eYFP with […] homologs of ASIC1a were constructed. These plasmids included those encoding human ASIC1a (hASIC1a-eYFP), mouse ASIC1a (mASIC1a-eYFP), and rat ASIC1a (rASIC1a-eYFP). CHO-K1 cells were transiently transfected with the ASIC1a-eYFP plasmids, and a fluorescence activated cell sorting (FACS)-based binding assay was carried out to determine binding to the homologs or isoforms of ASIC1a expressed on the cell surface. An isotype control was used as a negative control for binding (NC). ASC06-IgG1 was used as a positive control. Summarily, the CHO-K1 cells expressing the ASIC1a-eYFP (green) homologs were stained with the indicated antibody (red) and subjected to FACS.
To examine the ASIC isotype selectivity of ASC06-IgG1 affinity-matured antibodies, plasmids encoding fusion proteins of eYFP with isoforms of […] were constructed. These plasmids included those encoding human ASIC1b (hASIC1b-eYFP), human ASIC2a (hASIC2a-eYFP), and human ASIC3a (hASIC3a-eYFP). CHO-K1 cells were transiently transfected with these plasmids and used in a FACS-based binding assay disclosed herein. Binding of ASC06-IgG1 to CHO-K1 cells expressing human ASIC1a-eYFP (hASIC1a-eYFP) was used as a positive control (data not shown and FIG. 2), and an isotype control was used as a negative control for binding (NC).

In experiment [2] the target is T2, recombinant extracellular domain of hASIC1a (hASIC1a-ECD) (human, UniProt P78348 67-427, limits assumed).
T2 construct: extracellular domain; ASIC1a is one splice isoform of it; also called trimeric ectodomain of hASIC1a
T2 sequence (looked up): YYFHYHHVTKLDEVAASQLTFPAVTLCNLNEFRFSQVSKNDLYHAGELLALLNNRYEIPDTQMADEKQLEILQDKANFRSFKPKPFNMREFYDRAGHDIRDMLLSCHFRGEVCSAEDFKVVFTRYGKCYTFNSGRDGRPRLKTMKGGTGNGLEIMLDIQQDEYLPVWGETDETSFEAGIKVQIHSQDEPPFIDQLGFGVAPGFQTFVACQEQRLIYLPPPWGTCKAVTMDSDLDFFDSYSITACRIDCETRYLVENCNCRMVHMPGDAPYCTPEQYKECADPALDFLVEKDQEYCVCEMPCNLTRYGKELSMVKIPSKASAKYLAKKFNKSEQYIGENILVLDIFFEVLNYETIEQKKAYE
Kind of experiment: SPR, Biacore T200, hASIC1a-ECD immobilized, IgG1 as analyte. On the procedure: Binding affinities of four affinity-matured antibodies in IgG1 format (ASC06-01-IgG1 through ASC06-04-IgG1) to the recombinant extracellular domain of hASIC1a(hASIC1a-ECD) were measured using the Biacore T200™ (GE Healthcare). The ASC06-IgG1 antibody was used as a positive control. All manipulations were followed by the user guide of manufacturer. Briefly, was hASIC1a was immobilized, and serial dilutions of the indicated antibodies were added as analytes. The analysis of the results were processed in BIA Evaluation Software™.
In general terms: In SPR one partner is held on a chip, and binding of the other changes the refractive index at the surface.

For experiment [3], the target named is T3, hASIC1a-mCherry fusion on a stable cell line (human, UniProt P78348 1-528).
T3 sequence (looked up): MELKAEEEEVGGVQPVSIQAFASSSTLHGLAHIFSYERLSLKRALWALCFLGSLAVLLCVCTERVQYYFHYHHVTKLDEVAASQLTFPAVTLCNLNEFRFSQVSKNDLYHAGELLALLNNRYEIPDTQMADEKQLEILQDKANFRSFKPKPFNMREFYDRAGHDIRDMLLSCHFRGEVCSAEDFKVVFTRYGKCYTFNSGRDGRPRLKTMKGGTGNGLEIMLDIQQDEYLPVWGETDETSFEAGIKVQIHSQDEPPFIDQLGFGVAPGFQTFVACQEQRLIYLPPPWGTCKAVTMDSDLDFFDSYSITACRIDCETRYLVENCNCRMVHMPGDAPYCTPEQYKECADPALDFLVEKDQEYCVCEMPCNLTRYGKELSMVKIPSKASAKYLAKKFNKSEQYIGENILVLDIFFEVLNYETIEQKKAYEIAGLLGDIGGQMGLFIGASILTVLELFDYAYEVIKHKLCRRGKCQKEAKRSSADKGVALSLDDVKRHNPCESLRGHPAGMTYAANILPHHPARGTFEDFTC
Kind of experiment: cell-based or functional assay.

The target in experiment [4] is T4, hASIC1a on CHO-K1 cells stably expressing hASIC1a (human, UniProt P78348 1-528).
T4 sequence (looked up): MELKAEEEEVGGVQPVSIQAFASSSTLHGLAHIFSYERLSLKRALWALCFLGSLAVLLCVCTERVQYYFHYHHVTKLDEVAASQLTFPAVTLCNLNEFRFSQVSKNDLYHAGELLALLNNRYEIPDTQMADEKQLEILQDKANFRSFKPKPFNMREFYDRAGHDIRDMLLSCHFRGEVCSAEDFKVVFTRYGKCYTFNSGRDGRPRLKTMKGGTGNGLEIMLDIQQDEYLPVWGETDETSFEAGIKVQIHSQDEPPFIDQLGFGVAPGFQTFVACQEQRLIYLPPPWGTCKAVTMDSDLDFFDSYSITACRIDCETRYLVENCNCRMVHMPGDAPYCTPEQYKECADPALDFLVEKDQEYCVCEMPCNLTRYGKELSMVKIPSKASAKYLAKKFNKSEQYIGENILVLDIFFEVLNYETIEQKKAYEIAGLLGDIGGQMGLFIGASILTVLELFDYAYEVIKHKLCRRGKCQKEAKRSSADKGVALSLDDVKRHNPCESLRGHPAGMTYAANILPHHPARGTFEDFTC
Briefly: cell-based or functional assay.

This is an account of results in US20230174642A1, “AFFINITY-MATURATED ANTI-ASIC1a ANTIBODIES” (SHANGHAITECH UNIVERSITY, priority 2019, published 2023).

In general, Kd refers to the free concentration of one partner at which half of the binding sites on the other are occupied at equilibrium, for simple one-to-one binding. By koff is commonly meant the rate constant with which the complex falls apart. Usually kon stands for a measure of how fast the partners come together.

B1: ASC06-02-IgG1 (antibody, V domains shown)
VH: QVQLQQSGGGLVQPGGSLRLSCAASGFTFSSYAMSWVRQAPGKGLEWVSAISGSGGSTYYADSVKGRFTISRDNSKNTLYLQMNSLRAEDTAVYYCAKDSFFGRAKGSWGQGTLVTVSS
VL: QSALTQPASVSGSPGQSITISCTGTSSDVGAYNYVSWYQQQPGKAPKLMIYGVSNRPSGVSNRFSGSKSGNAASLTISGLQAEDEADYYCSSYTSSSTYVFGTGTKLTVLG
notes: Full length IgG1
Regarding B1, in experiment [1], the binding result is given as “binds”. In experiment [2], the Kd was determined as 0.0125 nM, the koff came to 0.000168 s⁻¹ and the on-rate (kon) worked out at 1.3e+07 M⁻¹ s⁻¹. Besides, the “IC50 for the inhibition of acid induced ASIC1a-mediated calcium influx, FLIPR-based assay” value in experiment [3] came to 1.97 nM. The “IC50 for the inhibition of ASIC1a currents, FMP assay” value in experiment [4] stood at 30.5 nM.

B2: ASC06-IgG1 (antibody, V domains shown)
VH: QVQLQQSGGGLVQPGGSLRLSCAASGFTFSSYAMSWVRQAPGKGLEWVSAISGSGGSTYYADSVKGRFTISRDNSKNTLYLQMNSLRAEDTAVYYCAKDSFYGYSKGDWGQGTLVTVSS
VL: QSALTQPASVSGSPGQSITISCTGTSSDVGAYNYVSWYQQQPGKAPKLMIYGVSNRPSGVSNRFSGSKSGNAASLTISGLQAEDEADYYCSSYTSSSTYVFGTGTKLTVLG
notes: Tested as full length IgG1; also called WT antibody ASC06-IgG1; parental ASC06-IgG1 antibody
Regarding B2, the binding result in experiment [1] is listed as “binds”. Moreover, in experiment [2], the Kd came to 0.28 nM, the koff was 0.0013 s⁻¹ and the kon worked out at 4.7e+06 M⁻¹ s⁻¹. For the same molecule, the “IC50 for the inhibition of acid induced ASIC1a-mediated calcium influx, FLIPR-based assay” value in experiment [3] worked out at 2.11 nM. Moreover, the “IC50 for the inhibition of ASIC1a currents, FMP assay” value in experiment [4] was found to be 251 nM.
